{"source": "patent US20230023414A1", "about": "“METHODS AND DEVICES FOR TREATING A DISEASE WITH BIOTHERAPEUTICS” (PROGENITY, INC., priority 2018, published 2023)", "key": {"[1]": {"conditions": "cited from earlier work; for Baseline dose: Bioavail.: dose info for non-approved agents from clinical trial information"}, "[2]": {"conditions": "pig, in vivo; for (AUC)T0-T240 h ± SEM / Tmax: 1.2 mg"}, "[3]": {"experiment": "Pharmacokinetics (blood insulin) of regular human insulin (NOVOLIN R) after subcutaneous or intra-jejunal jet delivery in swine", "type": "in vivo, Yorkshire female swine", "conditions": "for Cmax / Tmax: blood insulin", "protocol": "(§1) A total of 18 Yorkshire female swine in good health and weighing 60-70 kg each were included in this study. Swine were divided into two groups with 9 animals per group. […] A sham surgical laparotomy was performed. […] The jet delivery device was configured with the single nozzle in an axial orientation.\nSwine were divided into two groups with 9 animals per group. […] In all 18 animals, a laparotomy procedure was performed to expose the abdominal cavity. Animals remained under anesthesia during the entire procedure for the PK/PD study.\nFor the laparotomy in group 02, a small segment of the jejunal mucosa and serosa was exposed by midline laparotomy and the jet delivery device was inserted through antimesenteric incision.\n(§2) Blood samples were kept on wet ice until centrifugation and separation of plasma. […] Glucose was monitored every five (5) minutes during the study by portable glucose analyzer (StatStrip (SS) hospital glucose monitoring system (Nova Biomedical, Waltham, Mass.)). At each time point, approximate 0.1 mL of blood was drawn and immediately placed on a glucose monitoring test strip, and the whole blood glucose concentration was measured by the SS in triplicate.\nThe animals were anesthetized for the entire ECP."}, "blood glucose": {"system": "blood glucose", "experiment": "Euglycemic clamp procedure: blood glucose and dextrose infusion after NOVOLIN R SC or IJ in swine", "type": "in vivo, Yorkshire female swine", "conditions": "for mean blood glucose level: euglycemic clamp, swine", "protocol": "as §1, with “orientation. The device was held in place during the laparotomy insertion, and the nozzle outlet was directed to face the jejunal wall to direct the jet of the NOVOLIN® R to the GI tract.” for “orientation.”\nas §2\nA euglycemic clamp procedure (ECP) was employed to compare pharmacokinetics and pharmacodynamics of regular human Insulin (NOVOLIN® R) delivered subcutaneously (SC) in the neck versus intra-jejunally (IJ) by the jet delivery device in the small intestine. ECP was used to quantify the amount of glucose required to maintain normoglycemia after exogenous bolus of insulin. […] The animals were anesthetized for the entire ECP."}, "[4]": {"conditions": "cited from earlier work"}, "[5]": {"conditions": "IJ administration by jet delivery device, swine, Average"}, "[6]": {"conditions": "IJ administration by jet delivery device, swine, individual animals"}, "[7]": {"conditions": "SC administration, swine, Average"}, "[8]": {"conditions": "SC administration, swine, individual animals"}}, "note": "Values joined by “and” are separate entries in the source; they are usually repeats but may differ in a detail not shown here. Equal values may be shown once. Read-outs that look alike come from different tables or passages of the source. Marks after values point to notes of the source that are not given here."}
{"molecule": "CC[C@H](C)[C@H](NC(=O)[C@H](Cc1ccccc1)NC(=O)[C@H](CCC(=O)O)NC(=O)[C@H](CCCCNC(=O)COCCOCCNC(=O)COCCOCCNC(=O)CC[C@H](NC(=O)CCCCCCCCCCCCCCCCC(=O)O)C(=O)O)NC(=O)[C@H](C)NC(=O)[C@H](C)NC(=O)[C@H](CCC(N)=O)NC(=O)CNC(=O)[C@H](CCC(=O)O)NC(=O)[C@H](CC(C)C)NC(=O)[C@H](Cc1ccc(O)cc1)NC(=O)[C@H](CO)NC(=O)[C@H](CO)NC(=O)[C@@H](NC(=O)[C@H](CC(=O)O)NC(=O)[C@H](CO)NC(=O)[C@@H](NC(=O)[C@H](Cc1ccccc1)NC(=O)[C@@H](NC(=O)CNC(=O)[C@H](CCC(=O)O)NC(=O)C(C)(C)NC(=O)[C@@H](N)Cc1cnc[nH]1)[C@@H](C)O)[C@@H](C)O)C(C)C)C(=O)N[C@@H](C)C(=O)N[C@@H](Cc1c[nH]c2ccccc12)C(=O)N[C@@H](CC(C)C)C(=O)N[C@H](C(=O)N[C@@H](CCCNC(=N)N)C(=O)NCC(=O)N[C@@H](CCCNC(=N)N)C(=O)NCC(=O)O)C(C)C", "note": "[Semaglutide]", "values": [{"measurement": "Approved Dosing Info: Bio Avail", "setting": "[1]; SC administration", "value": 89, "unit": "%"}]}
{"molecule": "CC[C@H](C)[C@H](NC(=O)[C@H](CCC(=O)O)NC(=O)[C@H](CO)NC(=O)[C@@H](NC(=O)[C@@H](N)CO)C(C)C)C(=O)N[C@@H](CCC(N)=O)C(=O)N[C@@H](CC(C)C)C(=O)N[C@@H](CCSC)C(=O)N[C@@H](Cc1cnc[nH]1)C(=O)N[C@@H](CC(N)=O)C(=O)N[C@@H](CC(C)C)C(=O)NCC(=O)N[C@@H](CCCCN)C(=O)N[C@@H](Cc1cnc[nH]1)C(=O)N[C@@H](CC(C)C)C(=O)N[C@@H](CC(N)=O)C(=O)N[C@@H](CO)C(=O)N[C@@H](CCSC)C(=O)N[C@@H](CCC(=O)O)C(=O)N[C@@H](CCCN=C(N)N)C(=O)N[C@H](C(=O)N[C@@H](CCC(=O)O)C(=O)N[C@@H](Cc1c[nH]c2ccccc12)C(=O)N[C@@H](CC(C)C)C(=O)N[C@@H](CCCN=C(N)N)C(=O)N[C@@H](CCCCN)C(=O)N[C@@H](CCCCN)C(=O)N[C@@H](CC(C)C)C(=O)N[C@@H](CCC(N)=O)C(=O)N[C@@H](CC(=O)O)C(=O)N[C@H](C(=O)N[C@@H](Cc1cnc[nH]1)C(=O)N[C@@H](CC(N)=O)C(=O)N[C@@H](Cc1ccccc1)C(=O)O)C(C)C)C(C)C", "note": "[teriparatide]", "values": [{"measurement": "Approved Dosing Info: Bio Avail", "setting": "[1]; SC administration", "value": 95, "unit": "%"}]}
{"molecule": "Dulaglutide: long-acting GLP-1 receptor agonist, about 63 kDa; GLP-1 analogue linked to modified human IgG4 Fc; TRULICITY solution 3 mg/mL", "values": [{"measurement": "Approved Dosing Info: Bio Avail", "setting": "[1]; SC administration", "value": 65, "unit": "%"}, {"measurement": "AUCID (±SEM)", "setting": "[2]", "value": "3890.00 ± 94.73", "unit": "ng·h/mL"}, {"measurement": "Bioavailability relative to SC", "setting": "[2]", "value": "49.11 ± 0.08", "unit": "% ^a"}, {"measurement": "(AUC)T0-T240 h ± SEM", "setting": "[2]", "value": "4355.86 ± 1094.57 ^a ng · hr/mL"}, {"measurement": "Tmax", "setting": "[2]", "value": 8, "unit": "h"}, {"measurement": "Bioavailability relative to IV", "setting": "[2]; iv", "value": 100, "unit": "%"}, {"measurement": "(AUC)T0-T240 h ± SEM", "setting": "[2]; iv", "value": "16429.33 ± 600.93", "unit": "ng·h/mL"}, {"measurement": "Tmax", "setting": "[2]; iv", "value": 1, "unit": "h"}, {"measurement": "Bioavailability relative to SC", "setting": "[2]; sc", "value": 100, "unit": "%"}, {"measurement": "(AUC)T0-T240 h ± SEM", "setting": "[2]; sc", "value": "8869 ± 887.33", "unit": "ng·h/mL"}, {"measurement": "Tmax", "setting": "[2]; sc", "value": 6, "unit": "h"}]}
{"molecule": "Novolin® R: regular human insulin (recombinant), aqueous solution 100 units/mL with glycerol, metacresol, zinc chloride, pH 7.4", "values": [{"measurement": "blood insulin level", "setting": "[3]; animal 18P18, SC administration group", "value": "significantly higher than the rest of the animals in the group"}, {"measurement": "Cmax", "setting": "[3]; [5]", "value": 77.40, "unit": "uIU/mL"}, {"measurement": "Tmax", "setting": "[3]; [5]", "value": 55.63, "unit": "min"}, {"measurement": "Cmax", "setting": "[3]; [6]", "value": "40.93 uIU/mL and 96.77 uIU/mL and 5.03 uIU/mL and 7.96 uIU/mL and 48.77 uIU/mL and 85.38 uIU/mL and 207.96 uIU/mL and 126.39 uIU/mL"}, {"measurement": "Tmax", "setting": "[3]; [6]", "value": "20 min and 50 min and 90 min (2×) and 40 min (3×)"}, {"measurement": "Cmax", "setting": "[3]; [7]", "value": 202.94, "unit": "uIU/mL"}, {"measurement": "Tmax", "setting": "[3]; [7]", "value": 87.14, "unit": "min"}, {"measurement": "Cmax", "setting": "[3]; [8]", "value": "451.00 uIU/mL and 60.74 uIU/mL and 354.00 uIU/mL and 356.60 uIU/mL and 65.71 uIU/mL and 59.18 uIU/mL and 73.34 uIU/mL"}, {"measurement": "Tmax", "setting": "[3]; [8]", "value": "50 min (2×) and 180 min and 105 min and 30 min and 120 min"}, {"measurement": "time to maximum plasma concentration (Tmax)", "setting": "[3]; jejunum administration group", "value": 0.9272, "unit": "h"}, {"measurement": "time to maximum plasma concentration (Tmax)", "setting": "[3]; subcutaneous administration group", "value": 1.452, "unit": "h"}, {"measurement": "maximum plasma concentration Cmax, SC group versus IJ group", "setting": "[3]; swine", "value": "higher than that of the IJ administration group"}, {"measurement": "AUC of blood insulin, SC group versus IJ group", "setting": "[3]; swine, AUC0-420 min", "value": "higher than that of the IJ administration group"}, {"measurement": "mean dextrose infusion rate, IJ versus SC group", "setting": "blood glucose; 75 minutes to 420 minutes post-administration", "value": "higher in the SC administration group"}, {"measurement": "mean blood glucose level", "setting": "blood glucose; IJ administration group (jet delivery device)", "value": 89.6, "unit": "mg/dL"}, {"measurement": "mean blood glucose level", "setting": "blood glucose; SC administration group", "value": 83.5, "unit": "mg/dL"}, {"measurement": "mean dextrose infusion rate, IJ versus SC group", "setting": "blood glucose; first 70 minutes after administration", "value": "higher in the IJ administration group"}]}
{"molecule": "alirocumab", "values": [{"measurement": "Approved Dosing Info: Bio Avail", "setting": "[1]; SC administration", "value": 85, "unit": "%"}]}
{"molecule": "certolizumab pegol", "values": [{"measurement": "Approved Dosing Info: Bio Avail", "setting": "[1]; SC administration", "value": 80, "unit": "%"}]}
{"molecule": "dalteparin", "values": [{"measurement": "bioavailability by SC injection", "setting": "[1]; SC injection", "value": "approximately 87%"}, {"measurement": "half-life", "setting": "[1]; in vivo", "value": "3 to 5", "unit": "h"}, {"measurement": "stability at room temperature", "setting": "[4]", "value": "stable at room temperature"}]}
{"molecule": "denosumab", "values": [{"measurement": "Approved Dosing Info: Bio Avail", "setting": "[1]; SC administration", "value": 61, "unit": "%"}]}
{"molecule": "etanercept", "values": [{"measurement": "Approved Dosing Info: Bio Avail", "setting": "[1]; SC administration", "value": 58, "unit": "%"}]}
{"molecule": "glucagon (SC)", "values": [{"measurement": "Baseline dose: Bioavail.", "setting": "[1]; SC administration", "value": 100.0, "unit": "%"}]}
{"molecule": "golimumab", "values": [{"measurement": "Approved Dosing Info: Bio Avail", "setting": "[1]; SC administration", "value": 51, "unit": "%"}]}
{"molecule": "natalizumab", "values": [{"measurement": "Approved Dosing Info: Bio Avail", "setting": "[1]; IV administration", "value": 100, "unit": "%"}]}
{"molecule": "sargramostim", "values": [{"measurement": "Approved Dosing Info: Bio Avail", "setting": "[1]; IV administration", "value": 100, "unit": "%"}]}
{"molecule": "secukinumab", "values": [{"measurement": "Approved Dosing Info: Bio Avail", "setting": "[1]; SC administration", "value": 73, "unit": "%"}]}
{"molecule": "somatropin", "values": [{"measurement": "Baseline dose: Bioavail.", "setting": "[1]; SC administration", "value": 80.5, "unit": "%"}]}
{"molecule": "tocilizumab", "values": [{"measurement": "Approved Dosing Info: Bio Avail", "setting": "[1]; SC administration", "value": 80, "unit": "%"}]}
{"molecule": "ustekinumab", "values": [{"measurement": "Approved Dosing Info: Bio Avail", "setting": "[1]; SC administration", "value": 78, "unit": "%"}]}
{"molecule": "vedolizumab", "values": [{"measurement": "Approved Dosing Info: Bio Avail", "setting": "[1]; IV administration", "value": 100, "unit": "%"}]}
